Reference: patent publication US20260286308A1, “COMPOSITION CONTAINING EXTRACELLULAR MATRIX AND MATRIX-BOUND VESICLES FOR PRODUCING EXTRACELLULAR MATRIX AND PREPARATION METHOD THEREFOR” (HLB CELL CO., LTD, priority 2023, published 2026)

Assays:
[1] = tested on: Human fibroblasts; assay: Total collagen content in cell culture of single-cultured human fibroblasts (Sirius Red kit, absorbance 530 nm); conditions: 10 ng/mL epidermal growth factor added alone (Table 3 No. 2); FIG. 17
Method: To measure the human collagen content in the extracellular matrix present in a culture obtained according to each example described below, quantitative analysis was conducted by utilizing a commercially available Sirius Red kit (Chondrex, #9062). The analysis method followed the manufacturer's instructions. Specifically, Sirius Red solution was added to the culture, followed by incubation, and the precipitated collagen was then mixed with an acidic solution and quantitatively analyzed by measurement of absorbance at 530 nm.
Human fibroblasts were seeded at a density of 3×10^5 cells per 150-mm^2 culture dish. The cells were cultured in high-glucose Dulbecco's Modified Eagle's Medium (DMEM) supplemented with 10% fetal bovine serum and 1% penicillin for 7 days while a growth medium was exchanged every 2-3 days.
(§1) After being cultured according to Example 1.1.1, the cells were further cultured from day 8 using a serum-free/xeno-free culture medium [Dulbecco's Modified Eagle Medium: Ham's F-12 (1:1) supplemented with 100 (DMEM/F12) U/mL penicillin/streptomycin, 2 mM L-alanyl-L-glutamine, 5 μg/L selenium, 50 M ascorbate-2-phosphate, 10 mg/L insulin, 1 μM hydrocortisone, 0.02 nM triiodothyronine, 1 μM isoprenaline, and 10 μg/L epidermal growth factor] while the medium was exchanged at intervals of 2 to 3 days. […] The cell culture after collection was analyzed according to Example 3. […]

[2] = tested on: Human fibroblasts; assay: Laminin content in cell culture of single-cultured human fibroblasts (anti-human laminin antibody plate kit, absorbance 450 nm); conditions: 10 ng/mL epidermal growth factor added alone (Table 3 No. 2); FIG. 16
Method: To measure the amount of human laminin component in the extracellular matrix present in a culture obtained according to each example described below, quantitative analysis was conducted by using a commercially available analysis kit (TakaRa, MK107). The analysis method followed the manufacturer's instructions. Specifically, the culture was added onto a 96-well plate coated with an anti-human laminin antibody, followed by incubation. Thereafter, residues were washed off, and a chromogenic enzyme-conjugated specific antibody was added, followed by incubation. Then, quantitative analysis was conducted by measurement of the absorbance at 450 nm.
Human fibroblasts were seeded at a density of 3×10^5 cells per 150-mm^2 culture dish. […]
as §1

[3] = tested on: Human fibroblasts
Method: The analysis method followed the manufacturer's instructions.
Culture media each lacking an individual factor were prepared, and then culture was performed according to Example 1.1.
Then, culture was performed according to Example 1.1.

B1: epidermal growth factor: growth factor / ErbB signaling factor added to the serum-free/xeno-free culture medium (protein, UniProt P01133 23-1207, looked up)
Pro-epidermal growth factor: PQHWSCPEGTLAGNGNSTCVGPAPFLIFSHGNSIFRIDTEGTNYEQLVVDAGVSVIMDFHYNEKRIYWVDLERQLLQRVFLNGSRQERVCNIEKNVSGMAINWINEEVIWSNQQEGIITVTDMKGNNSHILLSALKYPANVAVDPVERFIFWSSEVAGSLYRADLDGVGVKALLETSEKITAVSLDVLDKRLFWIQYNREGSNSLICSCDYDGGSVHISKHPTQHNLFAMSLFGDRIFYSTWKMKTIWIANKHTGKDMVRINLHSSFVPLGELKVVHPLAQPKAEDDTWEPEQKLCKLRKGNCSSTVCGQDLQSHLCMCAEGYALSRDRKYCEDVNECAFWNHGCTLGCKNTPGSYYCTCPVGFVLLPDGKRCHQLVSCPRNVSECSHDCVLTSEGPLCFCPEGSVLERDGKTCSGCSSPDNGGCSQLCVPLSPVSWECDCFPGYDLQLDEKSCAASGPQPFLLFANSQDIRHMHFDGTDYGTLLSQQMGMVYALDHDPVENKIYFAHTALKWIERANMDGSQRERLIEEGVDVPEGLAVDWIGRRFYWTDRGKSLIGRSDLNGKRSKIITKENISQPRGIAVHPMAKRLFWTDTGINPRIESSSLQGLGRLVIASSDLIWPSGITIDFLTDKLYWCDAKQSVIEMANLDGSKRRRLTQNDVGHPFAVAVFEDYVWFSDWAMPSVMRVNKRTGKDRVRLQGSMLKPSSLVVVHPLAKPGADPCLYQNGGCEHICKKRLGTAWCSCREGFMKASDGKTCLALDGHQLLAGGEVDLKNQVTPLDILSKTRVSEDNITESQHMLVAEIMVSDQDDCAPVGCSMYARCISEGEDATCQCLKGFAGDGKLCSDIDECEMGVPVCPPASSKCINTEGGYVCRCSEGYQGDGIHCLDIDECQLGEHSCGENASCTNTEGGYTCMCAGRLSEPGLICPDSTPPPHLREDDHHYSVRNSDSECPLSHDGYCLHDGVCMYIEALDKYACNCVVGYIGERCQYRDLKWWELRHAGHGQQQKVIVVAVCVVVLVMLLLLSLWGAHYYRTQKLLSKNPKNPYEESSRDVRSRRPADTEDGMSSCPQPWFVVIKEHQDLKNGGQPVAGEDGQAADGSMQPTSWRQEPQLCGMGTEQGCWIPVSSDKGSCPQVMERSFHMPSYGTQTLEGGVEKPHSLLSANPLWQQRALDPPHQMELTQ
modifications: Pro-epidermal growth factor
- total collagen concentration [1]: 56.94 µg/mL
- laminin concentration [2]: 2.68 µg/mL
- amount of extracellular matrix produced, compared among growth factor groups ([3]; 10 ng/mL epidermal growth factor added alone, compared with FGF-2, KGF and combinations (Table 3)): highest amount
- amount of extracellular matrix produced ([3]; factor individually removed from serum-free/xeno-free culture medium (Table 1), compared with medium containing all factors, FIGS. 8 and 9): significantly reduced
